Laboratory results: patent publication US9260500B2, “Peptide and use thereof” (Takeda Pharmaceutical Company Limited, priority 2009, dated 2016)
Non-standard residues stand in square brackets, D forms with d. *: point of attachment. X4 = ((1S)-1-Carboxy-3-methylbutyl)carbamoyl, CC(C)C[C@H](NC(=O)*)C(=O)O; (5-carboxypentyl)carbamoyl = O=C(O)CCCCCNC(=O)*; (3-Carboxypropyl)carbamoyl = O=C(O)CCCNC(=O)*; Arg(Me) = CNC(=N)NCCC[C@H](N)C(=O)O; 4Pal = N[C@@H](Cc1ccncc1)C(=O)O; dHyp = O=C(O)[C@H]1C[C@H](O)CN1; Cha = N[C@@H](CC1CCCCC1)C(=O)O; Iva = CC[C@](C)(N)C(=O)O; Aib = CC(C)(N)C(=O)O

Columns and labels:
human Y2 receptor [1] = biological target: T1, human Y2 receptor (Homo sapiens, UniProt P49146); test: Receptor Binding Assay (RBA) for Human Y2, [125I]-PYY displacement on hY2R/CHO membrane fraction; conditions: IC50 of test compound/IC50 of PYY(3-36) (PYY(3-36) taken as 1)
T1 construct: expressed in transfected cells; membrane fraction
T1 sequence (P49146 1-381): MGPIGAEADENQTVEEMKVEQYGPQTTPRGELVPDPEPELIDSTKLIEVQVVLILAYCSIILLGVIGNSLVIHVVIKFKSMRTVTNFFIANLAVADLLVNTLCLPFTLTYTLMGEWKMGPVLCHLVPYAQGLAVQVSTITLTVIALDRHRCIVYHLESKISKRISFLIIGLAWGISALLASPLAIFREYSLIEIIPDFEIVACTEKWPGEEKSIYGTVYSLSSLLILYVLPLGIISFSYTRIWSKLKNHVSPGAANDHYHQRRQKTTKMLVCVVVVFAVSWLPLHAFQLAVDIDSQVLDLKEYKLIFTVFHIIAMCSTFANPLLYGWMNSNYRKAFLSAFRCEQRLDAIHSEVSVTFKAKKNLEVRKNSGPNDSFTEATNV
Summary of the method: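 hY2R stably expressed in CHO/dhfr− cells; membrane fraction prepared from cells disrupted in 10 mM NaHCO3, 5 mM EDTA buffer with protease inhibitors. Binding read as displacement of [125I]-PYY.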

human Y2 receptor [2] = biological target: T1, human Y2 receptor; test: Human Y2 Receptor G Protein Binding Assay (GBA), [35S]GTPγS; type: biochemical; conditions: EC50 of test compound/EC50 of PYY(3-36) (PYY3-36 taken as 1), hY2R/CHO membrane fraction
Summary of the method: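 Agonism measured as [35S]GTPγS binding, read by GF/C filtration and scintillation counting after 120 min at room temperature, using human Y2 membranes at 1 μg protein/mL in pH 7.4 Tris/MgCl2/NaCl/GDP buffer. Compound serially diluted 100 μM–1 nM; EC50 normalized to PYY(3-36) (ratio = compound/PYY).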

male C57EL/6J mice = test: 3-Days Continuous Subcutaneous Administration Test-1 (food intake suppressing activity); type: in vivo, mouse; conditions: 0.03 mg/kg/day, subcutaneous Alzet pump, food consumption over 3 days; relative to food intake suppression rate for PYY(3-36) (1 mg/kg/day) taken as 100%
Summary of the method: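 Male […] mice, 12-13 weeks, received compound at 0.03 mg/kg/day by subcutaneous osmotic pump (50% DMSO vehicle), housed singly with free food access. Food consumed over 3 days measured; suppression expressed relative to PYY(3-36) (1 mg/kg/day) set as 100%.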

RBA IC50 Ratio (human Y2 receptor [1]) | GBA EC50 Ratio (human Y2 receptor [2]) | Substance | food intake suppression rate (%) (male C57EL/6J mice)
1.2 | 1.5 | (5-carboxypentyl)carbamoyl-[D-Pro24, Pya(4)26, Cha27,36, Aib28,31, Lys30]-PYY(23-36) ({(5-carboxypentyl)carbamoyl}-S[dP]R[4Pal][Cha][Aib]NK[Aib]TRQR[Cha]-NH2; SMILES C[C@@H](O)[C@H](NC(=O)C(C)(C)NC(=O)[C@H](CCCCN)NC(=O)[C@H](CC(N)=O)NC(=O)C(C)(C)NC(=O)[C@H](CC1CCCCC1)NC(=O)[C@H](Cc1ccncc1)NC(=O)[C@H](CCCNC(=N)N)NC(=O)[C@H]1CCCN1C(=O)[C@H](CO)NC(=O)NCCCCCC(=O)O)C(=O)N[C@@H](CCCNC(=N)N)C(=O)N[C@@H](CCC(N)=O)C(=O)N[C@@H](CCCNC(=N)N)C(=O)N[C@@H](CC1CCCCC1)C(N)=O) [compound No. 294] | 45
2.4 | 1.7 | Ac-[D-Pro24, Iva25, Pya(4)26, Cha27,36, Aib28,31, Arg(Me)30]-PYY(23-36) (Ac-S[dP][Iva][4Pal][Cha][Aib]N[Arg(Me)][Aib]TRQR[Cha]-NH2) [compound No. 316] | 29
0.93 | 1.3 | [(1S)-1-Carboxy-3-methylbutyl]carbamoyl-[Gln23, D-Pro24, Pya(4)26, Cha27,36, Aib28,31, Lys30]-PYY(23-36) (X4-Q[dP]R[4Pal][Cha][Aib]NK[Aib]TRQR[Cha]-NH2; SMILES CC(C)C[C@H](NC(=O)N[C@@H](CCC(N)=O)C(=O)N1CCC[C@@H]1C(=O)N[C@@H](CCCNC(=N)N)C(=O)N[C@@H](Cc1ccncc1)C(=O)N[C@@H](CC1CCCCC1)C(=O)NC(C)(C)C(=O)N[C@@H](CC(N)=O)C(=O)N[C@@H](CCCCN)C(=O)NC(C)(C)C(=O)N[C@H](C(=O)N[C@@H](CCCNC(=N)N)C(=O)N[C@@H](CCC(N)=O)C(=O)N[C@@H](CCCNC(=N)N)C(=O)N[C@@H](CC1CCCCC1)C(N)=O)[C@@H](C)O)C(=O)O) [compound No. 284] | 21
1.6 | 1.9 | (3-Carboxypropyl)carbamoyl-[D-Pro24, Iva25, Pya(4)26, Cha27,36, Aib28,31, Lys30]-PYY(23-36) ({(3-Carboxypropyl)carbamoyl}-S[dP][Iva][4Pal][Cha][Aib]NK[Aib]TRQR[Cha]-NH2; SMILES CC[C@](C)(NC(=O)[C@H]1CCCN1C(=O)[C@H](CO)NC(=O)NCCCC(=O)O)C(=O)N[C@@H](Cc1ccncc1)C(=O)N[C@@H](CC1CCCCC1)C(=O)NC(C)(C)C(=O)N[C@@H](CC(N)=O)C(=O)N[C@@H](CCCCN)C(=O)NC(C)(C)C(=O)N[C@H](C(=O)N[C@@H](CCCNC(=N)N)C(=O)N[C@@H](CCC(N)=O)C(=O)N[C@@H](CCCNC(=N)N)C(=O)N[C@@H](CC1CCCCC1)C(N)=O)[C@@H](C)O) [compound No. 328] | 75
0.99 | 1.3 | 4-Imidazolecarbonyl-[D-Hyp24, Iva25,28, Pya(4)26, Cha27,36, Lys30, Adb31]-PYY(23-36) [compound No. 337] | 49

Substance | RBA IC50 Ratio (human Y2 receptor [1]) | GBA EC50 Ratio (human Y2 receptor [2]) | food intake suppression rate (%) (male C57EL/6J mice)
Ac-[D-Hyp24, Iva25,28, Pya(4)26, Cha27,36, Lys30, Aib31]-PYY(23-36) (Ac-S[dHyp][Iva][4Pal][Cha][Iva]NK[Aib]TRQR[Cha]-NH2; ends and bridges not checked) [compound No. 298] | 0.86 | 1.0 | 56
